Experimental data as given in patent publication US20230414660A1 (LUDWIG INSTITUTE FOR CANCER RESEARCH, published 2023).

B1: WT PD1 (receptor)
chain: MASDSPDRPWNPPTFSPALLVVTEGDNATFTCSFSNTSESFVLNWYRMSPSNQTDKLAAFPEDRSQPGQDARFRVTQLPNGRDFHMSVVRARRNDSGTYLCGAISLAPKAQIKESLRAELRVTERRALEHHHHHH
notes: Soluble monomeric protein made in bacteria with a C-terminal 6xHis tag and detected with anti-His antibody; also called WT PD1 decoy; WT PD-1 decoy
B2: Core_W (receptor)
chain: MASDSPDRPWNPPTFSPALLVVTEGDNATFTCSFSNTSESFVLNWYRESPSNQDDRLAAFPEDRSQPGQDARFRVTQLPNGRDFHMSVVRARRNDSGTYECGAISLAPKWKIKESLRAELRVTERRALEHHHHHH
notes: PD1 decoy variant, bacterial, C-terminal 6xHis
B3: T_76D (receptor)
chain: MASDSPDRPWNPPTFSPALLVVTEGDNATFTCSFSNTSESFVLNWYRMSPSNQDDKLAAFPEDRSQPGQDARFRVTQLPNGRDFHMSVVRARRNDSGTYLCGAISLAPKAQIKESLRAELRVTERRALEHHHHHH
notes: as for B2
B4: PD1_6XD (with 6xHis) (receptor)
chain: MASDSPDRPWNPPTFSPALLVVTEGDNATFTCSFSNTSESFVLNWYRESPSNQVDRLAAFPEDRSQPGQDARFRVTQLPNGRDFHMSVVRARRNDSGTYFCGAISLAPKWKIKESLRAELRVTERRALEHHHHHH
notes: Soluble monomeric, bacterial production
B5: Core A (receptor)
chain: MASDSPDRPWNPPTFSPALLVVTEGDNATFTCSFSNTSESFVLNWYRESPSNQDDRLAAFPEDRSQPGQDARFRVTQLPNGRDFHMSVVRARRNDSGTYECGAISLAPKAKIKESLRAELRVTERRALEHHHHHH
notes: as for B2
B6: Q133K (receptor)
chain: MASDSPDRPWNPPTFSPALLVVTEGDNATFTCSFSNTSESFVLNWYRMSPSNQTDKLAAFPEDRSQPGQDARFRVTQLPNGRDFHMSVVRARRNDSGTYLCGAISLAPKAKIKESLRAELRVTERRALEHHHHHH
notes: as for B2
B7: 6XC (receptor)
chain: MASDSPDRPWNPPTFSPALLVVTEGDNATFTCSFSNTSESFVLNWYRESPSNQVDRLAAFPEDRSQPGQDARFRVTQLPNGRDFHMSVVRARRNDSGTYICGAISLAPKWKIKESLRAELRVTERRALEHHHHHH
notes: as for B2
B8: B2 4XB (receptor)
chain: MASDSPDRPWNPPTFSPALLVVTEGDNATFTCSFSNTSESFVLNWYRDSPSNQDDRLAAFPEDRSQPGQDARFRVTQLPNGRDFHMSVVRARRNDSGTYLCGAISLAPKAKIKESLRAELRVTERRALEHHHHHH
notes: as for B2
B9: M70E (receptor)
chain: MASDSPDRPWNPPTFSPALLVVTEGDNATFTCSFSNTSESFVLNWYRESPSNQTDKLAAFPEDRSQPGQDARFRVTQLPNGRDFHMSVVRARRNDSGTYLCGAISLAPKAQIKESLRAELRVTERRALEHHHHHH
notes: as for B2
B10: K_78R (receptor)
chain: MASDSPDRPWNPPTFSPALLVVTEGDNATFTCSFSNTSESFVLNWYRMSPSNQTDRLAAFPEDRSQPGQDARFRVTQLPNGRDFHMSVVRARRNDSGTYLCGAISLAPKAQIKESLRAELRVTERRALEHHHHHH
notes: as for B2
B11: 6XB (receptor)
chain: MASDSPDRPWNPPTFSPALLVVTEGDNATFTCSFSNTSESFVLNWYRESPSNQDDRLAAFPEDRSQPGQDARFRVTQLPNGRDFHMSVVRARRNDSGTYICGAISLAPKWKIKESLRAELRVTERRALEHHHHHH
notes: as for B2
B12: A132W (receptor)
chain: MASDSPDRPWNPPTFSPALLVVTEGDNATFTCSFSNTSESFVLNWYRMSPSNQTDKLAAFPEDRSQPGQDARFRVTQLPNGRDFHMSVVRARRNDSGTYLCGAISLAPKWQIKESLRAELRVTERRALEHHHHHH
notes: as for B2
B13: PD1_6XDM (with 6xHis) (receptor)
chain: MASDSPDRPWNPPTFSPALLVVTEGDNATFTCSFSNTSESFVLNWYRMSPSNQVDRLAAFPEDRSQPGQDARFRVTQLPNGRDFHMSVVRARRNDSGTYFCGAISLAPKWKIKESLRAELRVTERRALEHHHHHH
notes: as for B4
B14: Core L (receptor)
chain: MASDSPDRPWNPPTFSPALLVVTEGDNATFTCSFSNTSESFVLNWYRESPSNQDDRLAAFPEDRSQPGQDARFRVTQLPNGRDFHMSVVRARRNDSGTYECGAISLAPKLKIKESLRAELRVTERRALEHHHHHH
notes: as for B2
B15: X1 4XMut (receptor)
chain: MASDSPDRPWNPPTFSPALLVVTEGDNATFTCSFSNTSESFVLNWYRESPSNQDDRLAAFPEDRSQPGQDARFRVTQLPNGRDFHMSVVRARRNDSGTYLCGAISLAPKAKIKESLRAELRVTERRALEHHHHHH
notes: as for B2
B16: PD1_4XMUT (with 6xHis) (receptor)
chain: MASDSPDRPWNPPTFSPALLVVTEGDNATFTCSFSNTSESFVLNWYRESPSNQDDRLAAFPEDRSQPGQDARFRVTQLPNGRDFHMSVVRARRNDSGTYFCGAISLAPKAKIKESLRAELRVTERRALEHHHHHH
notes: as for B4
B17: PD1_4XMUT_M70 (with 6xHis) (receptor)
chain: MASDSPDRPWNPPTFSPALLVVTEGDNATFTCSFSNTSESFVLNWYRMSPSNQDDRLAAFPEDRSQPGQDARFRVTQLPNGRDFHMSVVRARRNDSGTYFCGAISLAPKAKIKESLRAELRVTERRALEHHHHHH
B18: 5XD (receptor)
chain: MASDSPDRPWNPPTFSPALLVVTEGDNATFTCSFSNTSESFVLNWYRESPSNQVDRLAAFPEDRSQPGQDARFRVTQLPNGRDFHMSVVRARRNDSGTYFCGAISLAPKAKIKESLRAELRVTERRALEHHHHHH
notes: as for B2
B19: L122E (receptor)
chain: MASDSPDRPWNPPTFSPALLVVTEGDNATFTCSFSNTSESFVLNWYRMSPSNQTDKLAAFPEDRSQPGQDARFRVTQLPNGRDFHMSVVRARRNDSGTYECGAISLAPKAQIKESLRAELRVTERRALEHHHHHH
notes: as for B2

The binders below were run against T1, human PDL1 protein (human, UniProt Q9NZQ7 19-238, limits assumed) (assay: titration ELISA, soluble His-tagged PD1 decoy on plate-coated human PD-L1, anti-His detection).
T1 construct: also called plate-captured PD-L1
T1 sequence (Q9NZQ7 19-238 limits assumed): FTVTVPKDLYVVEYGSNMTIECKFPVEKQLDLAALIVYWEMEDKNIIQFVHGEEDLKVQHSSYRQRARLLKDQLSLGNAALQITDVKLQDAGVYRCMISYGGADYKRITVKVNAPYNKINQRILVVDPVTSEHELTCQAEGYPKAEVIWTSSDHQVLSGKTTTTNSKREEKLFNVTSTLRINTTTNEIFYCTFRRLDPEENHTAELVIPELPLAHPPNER

Question: Which “Affinity to PD-L1 (relative to WT PD1)” value does the source give for B1 here?
Answer: 1 fold relative to WT PD1

Question: With B2 as the binder, how does the “Affinity to PD-L1 (relative to WT PD1)” value read?
Answer: 1020 fold relative to WT PD1

Question: How did the “Affinity to PD-L1 (relative to WT PD1)” value turn out when B3 was run?
Answer: 8.3 fold relative to WT PD1

Question: How did the “Affinity to PD-L1 (relative to WT PD1)” value turn out when B4 was run?
Answer: 7.2 fold relative to WT PD1

Question: With B5 as the binder, how does the “Affinity to PD-L1 (relative to WT PD1)” value read?
Answer: 7.1 fold relative to WT PD1

Question: Which “Affinity to PD-L1 (relative to WT PD1)” value does the source give for B6 here?
Answer: 3 fold relative to WT PD1

Question: How did the “Affinity to PD-L1 (relative to WT PD1)” value turn out when B7 was run?
Answer: 1.1 fold relative to WT PD1

Question: With B8 as the binder, how does the “Affinity to PD-L1 (relative to WT PD1)” value read?
Answer: 7.3 fold relative to WT PD1

Question: With B9 as the binder, how does the “Affinity to PD-L1 (relative to WT PD1)” value read?
Answer: 5.2 fold relative to WT PD1

Question: B10 was tested. Which “Affinity to PD-L1 (relative to WT PD1)” value did it give?
Answer: 1.4 fold relative to WT PD1

Question: For B11, which “Affinity to PD-L1 (relative to WT PD1)” value is on record?
Answer: 1.3 fold relative to WT PD1

Question: Which “Affinity to PD-L1 (relative to WT PD1)” value does the source give for B12 here?
Answer: 3 fold relative to WT PD1

Question: For B13, which “Affinity to PD-L1 (relative to WT PD1)” value is on record?
Answer: 7.5 fold relative to WT PD1

Question: With B14 as the binder, how does the “Affinity to PD-L1 (relative to WT PD1)” value read?
Answer: 1.7 fold relative to WT PD1

Question: Which “Affinity to PD-L1 (relative to WT PD1)” value does the source give for B15 here?
Answer: 5.6 fold relative to WT PD1

Question: B16 was tested. Which “Affinity to PD-L1 (relative to WT PD1)” value did it give?
Answer: 5 fold relative to WT PD1

Question: Which “Affinity to PD-L1 (relative to WT PD1)” value does the source give for B17 here?
Answer: 10 fold relative to WT PD1

Question: With B18 as the binder, how does the “Affinity to PD-L1 (relative to WT PD1)” value read?
Answer: 1.1 fold relative to WT PD1

Question: For B19, which “Affinity to PD-L1 (relative to WT PD1)” value is on record?
Answer: 3 fold relative to WT PD1
